In PMC12285722, “M6A-dependent RNA condensation underlies FUS autoregulation and can be harnessed for ALS therapy development”:

Molecular target: FUS (recombinant, His-tagged) (human, UniProt P35637 1-526)
Test: EMSA; 250 nM RNA, 0-7.5 uM FUS (Methods: 7.0); EMSA: 50 mM Tris-HCl pH 7.5, 100 mM KCl, 2 mM MgCl2, 100 mM beta-mercaptoethanol, 0.1 mg/ml BSA, 30 min RT, 6% native gel in TBE; CONA: lysate in 1% Triton X-100/PBS, beads washed in 20 mM Hepes pH 7.5, 0.3 M NaCl, 0.01% Triton X-100, 5 mM MgCl2, 2 h RT
Settings: protein: recombinant; tags: His; label: 5' Cy5; 3' biotin-TEG

Chain of FUS (recombinant, His-tagged) (P35637 whole entry): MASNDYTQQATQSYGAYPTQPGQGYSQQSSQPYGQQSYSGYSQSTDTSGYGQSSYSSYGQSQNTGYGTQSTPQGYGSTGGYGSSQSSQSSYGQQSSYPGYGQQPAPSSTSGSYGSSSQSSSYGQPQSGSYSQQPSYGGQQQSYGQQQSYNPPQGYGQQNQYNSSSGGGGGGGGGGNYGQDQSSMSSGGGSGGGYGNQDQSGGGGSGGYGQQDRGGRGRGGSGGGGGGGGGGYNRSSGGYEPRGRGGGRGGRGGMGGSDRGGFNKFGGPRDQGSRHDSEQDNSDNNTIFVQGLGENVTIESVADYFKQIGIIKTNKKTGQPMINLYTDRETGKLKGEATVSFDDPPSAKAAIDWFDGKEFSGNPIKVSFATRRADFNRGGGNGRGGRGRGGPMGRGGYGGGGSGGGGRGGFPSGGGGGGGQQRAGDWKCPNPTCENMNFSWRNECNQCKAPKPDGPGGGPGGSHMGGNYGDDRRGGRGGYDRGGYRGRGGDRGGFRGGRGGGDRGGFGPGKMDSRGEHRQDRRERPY

B1: 4xDRACH (ssRNA)
RNA: GGACUCGGACUUGGACUCUGGACUUUG
B1: binds.
